Assay [1] concerns the target Urn8RA (Urinate Receptor isoform RA) expressed in CHO/G16 cells (Tribolium castaneum).
In assay [2] the target is Urn8RB (Urinate Receptor isoform RB) expressed in CHO/G16 cells (Tribolium castaneum).

In assay [1], “Tribolium castaneum diuretic hormone 37 (DH37), unlabeled (peptide)” came in with a bioluminescence response of CHO/G16 cells expressing Urn8RA, dose-response, EC50 of 160 nM. The bioluminescence response of CHO/G16 cells expressing Urn8RB, dose-response, EC50 in assay [2] is 450 nM.
For “Tribolium castaneum diuretic hormone 47 (DH47), unlabeled (peptide)”, in that order: 380 nM and 340 nM.

Source of the values: paper doi:10.1101/2020.11.19.389874.
